Here are results for two molecules from publication PMC9067401 (Genes & Development, 2022).

B1: BRIL-fused Hat1ΔC (yeast Hat1 residues 1–320) (enzyme, UniProt Q12341 1-320, looked up)
chain: MSANDFKPETWTSSANEALRVSIVGENAVQFSPLFTYPIYGDSEKIYGYKDLIIHLAFDSVTFKPYVNVKYSAKLGDDNIVDVEKKLLSFLPKDDVIVRDEAKWVDCFAEERKTHNLSDVFEKVSEYSLNGEEFVVYKSSLVDDFARRMHRRVQIFSLLFIEAANYIDETDPSWQIYWLLNKKTKELIGFVTTYKYWHYLGAKSFDEDIDKKFRAKISQFLIFPPYQNKGHGSCLYEAIIQSWLEDKSITEITVEDPNEAFDDLRDRNDIQRLRKLGYDAVFQKHSDLSDEFLESSRKSLKLEERQFNRLVEMLLLLNNS
B2: Hat2, full-length, yeast (natural protein)
chain: MENQEKPLSVDEEYDLWKSNVPLMYDFVSETRLTWPSLTVQWLPTPVQELDGGFIKQELIIGTHTSGEEENYLKFAEINLPKEILSNEDPQEEAGEEYQSSLPAPRSNIRITAKYEHEEEITRARYMPQDPNIVATINGQGTVFLYSRSEGLQSTLKFHKDNGYALSFSTLVKGRLLSGSDDHTVALWEVGSGGDPTKPVRTWNDLHSDIINDNKWHNFNKDLFGTVSEDSLLKINDVRANNTTIDTVKCPQPFNTLAFSHHSSNLLAAAGMDSYVYLYDLRNMKEPLHHMSGHEDAVNNLEFSTHVDGVVVSSGSDNRLMMWDLKQIGAEQTPDDAEDGVPELIMVHAGHRSSVNDFDLNPQIPWLVASAEEENILQVWKCSHSLPIVGGPPKVNKDIIS

The target in the assay “Hat2, full-length, yeast” is B2. The assay can be described thus: crystal structure.
Another assay concerns the target histone H4(7–102), yeast (yeast, UniProt P02309 8-103). The assay can be described thus: crystal structure.

As for B1, the binding result is reported as “binds” with Hat2, full-length, yeast and “binds” with histone H4(7–102), yeast. With B2, in the assay with histone H4(7–102), yeast, the binding result is listed as “binds”.
